How the values were obtained:
Assay in all cases: cell-based or functional assay
[1] = target: DRAK1(h) (human) (UniProt Q9UEE5)
[2] = target: Mnk2(h) (human) (UniProt Q9HBH9)
[3] = target: c-RAF(h) (human) (UniProt P04049)
[4] = target: AMPKα2(h) (human) (UniProt P54646)
[5] = target: T1, TAO3(h) (human) (UniProt Q9H2K8)
T1 sequence (looked up): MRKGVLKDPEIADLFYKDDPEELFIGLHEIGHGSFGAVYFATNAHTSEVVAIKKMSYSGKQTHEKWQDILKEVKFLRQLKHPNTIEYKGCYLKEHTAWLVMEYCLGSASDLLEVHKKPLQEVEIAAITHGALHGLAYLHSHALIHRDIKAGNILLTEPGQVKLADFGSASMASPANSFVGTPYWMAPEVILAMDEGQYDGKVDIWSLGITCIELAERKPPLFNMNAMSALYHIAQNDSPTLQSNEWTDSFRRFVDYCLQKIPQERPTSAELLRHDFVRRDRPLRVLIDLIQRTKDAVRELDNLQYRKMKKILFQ

[6] = target: cKit(V654A)(h) (human) (UniProt P10721)
[7] = target: Plk3(h) (human) (UniProt Q9H4B4)
[8] = target: JNK2α2(h) (human) (UniProt P45984)
[9] = target: T2, MST1(h) (human) (UniProt Q13043)
T2 sequence (looked up): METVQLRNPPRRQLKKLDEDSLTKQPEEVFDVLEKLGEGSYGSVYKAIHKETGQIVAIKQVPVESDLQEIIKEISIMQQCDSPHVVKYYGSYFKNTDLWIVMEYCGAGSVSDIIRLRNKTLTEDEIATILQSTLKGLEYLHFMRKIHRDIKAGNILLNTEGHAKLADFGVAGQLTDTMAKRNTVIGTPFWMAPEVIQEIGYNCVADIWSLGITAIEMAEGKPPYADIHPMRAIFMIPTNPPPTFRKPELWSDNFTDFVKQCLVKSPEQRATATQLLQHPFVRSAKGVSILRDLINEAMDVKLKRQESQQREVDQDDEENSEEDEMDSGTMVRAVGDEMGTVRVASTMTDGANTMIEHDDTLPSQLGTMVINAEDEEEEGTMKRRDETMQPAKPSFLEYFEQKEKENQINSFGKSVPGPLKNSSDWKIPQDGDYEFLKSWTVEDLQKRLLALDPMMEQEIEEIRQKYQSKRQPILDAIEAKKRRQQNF

[10] = target: ALK(h) (human) (UniProt Q9UM73)
[11] = target: Lyn(h) (human) (UniProt P07948)
[12] = target: Rsk3(h) (human) (UniProt Q15349)
[13] = target: PKGδ(h) (human)
[14] = target: PKA(h) (human) (UniProt P17612)
[15] = target: T3, NEK3(h) (human) (UniProt P51956)
T3 sequence (looked up): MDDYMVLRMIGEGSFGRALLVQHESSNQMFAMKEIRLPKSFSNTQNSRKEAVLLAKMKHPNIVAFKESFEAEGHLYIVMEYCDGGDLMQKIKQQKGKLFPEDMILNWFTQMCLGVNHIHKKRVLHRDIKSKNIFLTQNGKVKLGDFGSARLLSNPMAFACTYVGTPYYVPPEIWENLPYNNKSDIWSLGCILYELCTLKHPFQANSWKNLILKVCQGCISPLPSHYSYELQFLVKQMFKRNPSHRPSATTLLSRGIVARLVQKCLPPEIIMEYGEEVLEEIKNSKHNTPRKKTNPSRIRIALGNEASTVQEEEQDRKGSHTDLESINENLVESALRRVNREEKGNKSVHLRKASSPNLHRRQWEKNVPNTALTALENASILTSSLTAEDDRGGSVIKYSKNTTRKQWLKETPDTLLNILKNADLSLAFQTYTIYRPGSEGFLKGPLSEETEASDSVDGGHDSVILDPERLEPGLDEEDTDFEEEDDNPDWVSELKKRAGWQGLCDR

[16] = target: Hck(h) activated (human) (UniProt P08631)
[17] = target: T4, IRAK4(h) (human) (UniProt Q9NWZ3)
T4 sequence (looked up): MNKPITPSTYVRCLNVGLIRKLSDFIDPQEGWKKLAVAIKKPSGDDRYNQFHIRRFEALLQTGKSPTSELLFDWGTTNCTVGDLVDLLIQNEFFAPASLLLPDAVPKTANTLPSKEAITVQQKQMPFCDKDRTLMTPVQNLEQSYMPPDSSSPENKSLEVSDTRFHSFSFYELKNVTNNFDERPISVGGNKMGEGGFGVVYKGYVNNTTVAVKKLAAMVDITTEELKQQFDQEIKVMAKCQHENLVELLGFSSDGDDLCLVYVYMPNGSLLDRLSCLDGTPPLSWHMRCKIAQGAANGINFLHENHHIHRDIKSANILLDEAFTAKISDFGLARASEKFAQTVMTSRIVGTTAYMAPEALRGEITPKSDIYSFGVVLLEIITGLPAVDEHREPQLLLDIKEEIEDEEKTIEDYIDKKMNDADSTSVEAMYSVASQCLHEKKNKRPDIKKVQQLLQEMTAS

[18] = target: Pyk2 (h) (human) (UniProt Q14289)
Sequence of Pyk2 (h) (human) (Q14289 whole entry): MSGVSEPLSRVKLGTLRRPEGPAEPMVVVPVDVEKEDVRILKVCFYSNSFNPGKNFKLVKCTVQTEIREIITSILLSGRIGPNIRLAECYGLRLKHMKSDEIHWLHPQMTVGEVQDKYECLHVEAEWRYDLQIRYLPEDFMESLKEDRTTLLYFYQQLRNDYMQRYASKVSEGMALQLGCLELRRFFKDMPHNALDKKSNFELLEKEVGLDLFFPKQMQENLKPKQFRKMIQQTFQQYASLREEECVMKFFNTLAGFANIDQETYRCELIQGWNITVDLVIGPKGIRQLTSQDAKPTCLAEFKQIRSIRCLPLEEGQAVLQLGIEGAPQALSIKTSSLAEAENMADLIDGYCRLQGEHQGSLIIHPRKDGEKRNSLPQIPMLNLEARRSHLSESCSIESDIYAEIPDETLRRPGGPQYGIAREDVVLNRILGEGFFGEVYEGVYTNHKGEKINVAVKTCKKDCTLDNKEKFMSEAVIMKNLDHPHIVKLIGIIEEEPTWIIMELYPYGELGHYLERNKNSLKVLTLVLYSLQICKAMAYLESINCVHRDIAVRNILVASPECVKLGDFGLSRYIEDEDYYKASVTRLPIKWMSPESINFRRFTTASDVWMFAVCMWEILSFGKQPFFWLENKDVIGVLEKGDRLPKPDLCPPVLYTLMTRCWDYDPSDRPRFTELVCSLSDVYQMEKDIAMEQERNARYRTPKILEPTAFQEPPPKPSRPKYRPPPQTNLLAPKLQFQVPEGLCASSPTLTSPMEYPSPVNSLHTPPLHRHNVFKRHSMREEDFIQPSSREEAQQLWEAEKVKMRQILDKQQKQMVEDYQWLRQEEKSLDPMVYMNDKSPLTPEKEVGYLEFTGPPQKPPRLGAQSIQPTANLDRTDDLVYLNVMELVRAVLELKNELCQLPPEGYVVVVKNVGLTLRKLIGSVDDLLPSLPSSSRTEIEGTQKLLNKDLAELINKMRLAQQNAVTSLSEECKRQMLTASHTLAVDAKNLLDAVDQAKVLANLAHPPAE

Sequence of Hck(h) activated (human) (P08631 251-518 limits assumed): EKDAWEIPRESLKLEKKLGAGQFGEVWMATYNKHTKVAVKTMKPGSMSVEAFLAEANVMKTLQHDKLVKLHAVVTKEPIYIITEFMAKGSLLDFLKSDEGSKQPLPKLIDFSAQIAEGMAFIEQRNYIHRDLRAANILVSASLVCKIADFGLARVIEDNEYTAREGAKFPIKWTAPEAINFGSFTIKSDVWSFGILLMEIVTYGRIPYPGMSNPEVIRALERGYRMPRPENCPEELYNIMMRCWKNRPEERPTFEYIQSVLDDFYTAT
Sequence of Rsk3(h) (human) (Q15349 whole entry): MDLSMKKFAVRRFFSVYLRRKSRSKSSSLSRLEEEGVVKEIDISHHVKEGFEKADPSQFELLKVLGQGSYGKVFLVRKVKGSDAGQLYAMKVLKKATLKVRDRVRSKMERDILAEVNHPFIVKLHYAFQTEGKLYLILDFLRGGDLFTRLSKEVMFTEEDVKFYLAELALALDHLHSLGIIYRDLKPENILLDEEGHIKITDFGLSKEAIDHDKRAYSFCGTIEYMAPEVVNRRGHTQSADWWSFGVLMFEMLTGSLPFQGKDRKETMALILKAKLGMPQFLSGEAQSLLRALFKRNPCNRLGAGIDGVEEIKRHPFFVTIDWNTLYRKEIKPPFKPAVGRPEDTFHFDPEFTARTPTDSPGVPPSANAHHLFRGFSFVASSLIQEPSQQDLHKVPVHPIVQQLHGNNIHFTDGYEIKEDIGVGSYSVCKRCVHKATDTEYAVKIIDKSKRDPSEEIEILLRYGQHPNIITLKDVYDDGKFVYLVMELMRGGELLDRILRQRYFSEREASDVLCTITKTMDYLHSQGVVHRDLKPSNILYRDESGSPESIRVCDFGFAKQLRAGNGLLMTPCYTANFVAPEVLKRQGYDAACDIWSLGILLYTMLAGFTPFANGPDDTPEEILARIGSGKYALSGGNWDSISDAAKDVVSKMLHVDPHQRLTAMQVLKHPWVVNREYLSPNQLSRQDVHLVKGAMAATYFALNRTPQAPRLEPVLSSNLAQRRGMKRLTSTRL
Sequence of Plk3(h) (human) (Q9H4B4 58-340 limits assumed): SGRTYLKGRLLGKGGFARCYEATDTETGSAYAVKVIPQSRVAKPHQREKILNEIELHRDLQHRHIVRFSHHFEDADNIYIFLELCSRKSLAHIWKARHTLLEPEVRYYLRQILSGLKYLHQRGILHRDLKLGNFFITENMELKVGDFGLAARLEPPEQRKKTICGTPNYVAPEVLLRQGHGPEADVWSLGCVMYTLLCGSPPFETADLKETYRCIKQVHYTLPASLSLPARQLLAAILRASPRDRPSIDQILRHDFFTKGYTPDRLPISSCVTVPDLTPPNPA
Sequence of Mnk2(h) (human) (Q9HBH9 whole entry): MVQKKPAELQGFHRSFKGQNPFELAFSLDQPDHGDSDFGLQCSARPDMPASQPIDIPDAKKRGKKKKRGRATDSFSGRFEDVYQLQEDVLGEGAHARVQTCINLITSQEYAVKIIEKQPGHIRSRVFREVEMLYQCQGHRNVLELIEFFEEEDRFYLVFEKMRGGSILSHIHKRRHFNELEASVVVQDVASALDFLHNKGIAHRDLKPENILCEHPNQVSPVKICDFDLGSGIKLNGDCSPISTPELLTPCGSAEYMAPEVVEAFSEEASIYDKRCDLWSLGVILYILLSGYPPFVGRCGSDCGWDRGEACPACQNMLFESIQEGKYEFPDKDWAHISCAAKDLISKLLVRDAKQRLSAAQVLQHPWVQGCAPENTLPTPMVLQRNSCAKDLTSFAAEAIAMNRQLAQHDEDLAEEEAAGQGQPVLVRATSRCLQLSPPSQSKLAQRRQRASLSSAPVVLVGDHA
Sequence of AMPKα2(h) (human) (P54646 whole entry): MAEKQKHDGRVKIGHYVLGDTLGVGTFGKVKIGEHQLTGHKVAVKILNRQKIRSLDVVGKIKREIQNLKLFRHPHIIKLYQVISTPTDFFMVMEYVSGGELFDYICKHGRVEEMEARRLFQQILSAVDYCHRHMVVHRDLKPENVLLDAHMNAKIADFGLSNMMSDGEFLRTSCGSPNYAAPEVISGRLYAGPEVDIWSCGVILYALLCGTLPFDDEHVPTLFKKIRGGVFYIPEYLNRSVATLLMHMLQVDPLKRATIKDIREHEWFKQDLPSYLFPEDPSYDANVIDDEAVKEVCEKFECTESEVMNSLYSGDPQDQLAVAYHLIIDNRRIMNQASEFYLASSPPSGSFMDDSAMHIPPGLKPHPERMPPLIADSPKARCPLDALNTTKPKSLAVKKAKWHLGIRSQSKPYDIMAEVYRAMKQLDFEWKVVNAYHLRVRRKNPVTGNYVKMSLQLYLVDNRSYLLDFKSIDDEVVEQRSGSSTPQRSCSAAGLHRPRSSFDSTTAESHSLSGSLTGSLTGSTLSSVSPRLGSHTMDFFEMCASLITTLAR
Sequence of DRAK1(h) (human) (Q9UEE5 whole entry): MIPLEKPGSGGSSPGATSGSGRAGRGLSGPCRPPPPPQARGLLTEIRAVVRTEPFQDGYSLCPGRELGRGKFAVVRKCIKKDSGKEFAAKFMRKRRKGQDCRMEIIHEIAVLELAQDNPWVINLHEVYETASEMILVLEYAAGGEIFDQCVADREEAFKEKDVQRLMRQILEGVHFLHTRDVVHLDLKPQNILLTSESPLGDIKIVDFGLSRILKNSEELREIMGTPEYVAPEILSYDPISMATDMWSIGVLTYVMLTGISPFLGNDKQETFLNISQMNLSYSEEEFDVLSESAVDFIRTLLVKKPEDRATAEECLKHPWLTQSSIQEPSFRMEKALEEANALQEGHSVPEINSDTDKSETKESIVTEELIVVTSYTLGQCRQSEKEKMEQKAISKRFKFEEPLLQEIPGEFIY
Sequence of ALK(h) (human) (Q9UM73 1058-1620 limits assumed): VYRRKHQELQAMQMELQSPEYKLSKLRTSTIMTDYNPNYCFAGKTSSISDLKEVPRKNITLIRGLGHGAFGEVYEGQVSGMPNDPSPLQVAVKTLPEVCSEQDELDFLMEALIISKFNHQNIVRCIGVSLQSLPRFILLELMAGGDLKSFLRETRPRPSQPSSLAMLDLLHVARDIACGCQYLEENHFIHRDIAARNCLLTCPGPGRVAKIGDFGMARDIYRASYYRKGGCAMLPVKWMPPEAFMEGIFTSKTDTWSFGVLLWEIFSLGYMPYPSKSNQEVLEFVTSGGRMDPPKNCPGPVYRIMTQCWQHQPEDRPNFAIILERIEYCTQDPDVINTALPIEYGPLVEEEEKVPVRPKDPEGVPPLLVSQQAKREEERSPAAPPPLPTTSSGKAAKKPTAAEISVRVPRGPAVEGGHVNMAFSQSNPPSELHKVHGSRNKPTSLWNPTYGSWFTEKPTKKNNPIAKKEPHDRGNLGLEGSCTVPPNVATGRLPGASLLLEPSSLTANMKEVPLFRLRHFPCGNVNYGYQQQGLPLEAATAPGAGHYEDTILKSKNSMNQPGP
Sequence of Lyn(h) (human) (P07948 whole entry): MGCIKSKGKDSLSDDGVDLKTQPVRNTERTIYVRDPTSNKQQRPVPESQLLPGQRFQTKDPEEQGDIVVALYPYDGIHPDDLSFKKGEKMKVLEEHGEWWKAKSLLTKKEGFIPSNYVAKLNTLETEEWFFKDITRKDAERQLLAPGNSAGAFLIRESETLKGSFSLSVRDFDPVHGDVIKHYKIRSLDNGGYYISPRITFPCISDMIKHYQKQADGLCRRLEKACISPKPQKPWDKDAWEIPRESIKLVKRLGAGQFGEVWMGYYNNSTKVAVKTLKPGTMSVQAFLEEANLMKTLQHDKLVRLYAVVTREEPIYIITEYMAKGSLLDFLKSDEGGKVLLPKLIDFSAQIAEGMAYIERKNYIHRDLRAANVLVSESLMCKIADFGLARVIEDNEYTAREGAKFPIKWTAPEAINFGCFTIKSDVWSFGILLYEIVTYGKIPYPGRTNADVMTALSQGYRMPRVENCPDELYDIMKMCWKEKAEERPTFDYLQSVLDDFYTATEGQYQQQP

- % activity, 100 µM [1]: 8%
- % activity, 100 µM [2]: 6%
- % activity, 100 µM [3]: 19%
- % activity, 100 µM [4]: 9%
- % activity, 100 µM [5]: 12%
- % activity, 100 µM [6]: 223%
- % activity, 100 µM [7]: 122%
- % activity, 100 µM [8]: 81%
- % activity, 100 µM [9]: 3%
- % activity, 100 µM [10]: 12%
- % activity, 100 µM [11]: 31%
- % activity, 100 µM [12]: 23%
- % activity, 100 µM [13]: 61%
- % activity, 100 µM [14]: 118%
- % activity, 100 µM [15]: 20%
- % activity, 100 µM [16]: 67%
- % activity, 100 µM [17]: 3%
- % activity, 100 µM [18]: 46%
Substance: MMI-0500 (peptide)
